Experimental data reported in patent US20240417476A1 (ATYR PHARMA, published 2024).
Ends that are not written are not given here.

B1: aNRP2-401v2 (antibody, V domains shown)
VH: EVQLQESGGGLVKPGGSLKLSCAASGFTFSDYGMHWVRQAPEKGLEWVATISRDINTVYYADTVKGRFTISRDNAKNTLFLQVTSLRSEDTAMYYCTRGGYTDYWGQGTTLTVSS
VL: DIVMTQTPLSLPVSLGDQASISCRSSQSLVHSNGNTYLYWYLQRPGQSPKLLIYKVSNRFSGVPDRFSGSGSGTDFTLKISRVEAEDLGVYFCSQSTHVLTFGGGTKLEIK
notes: Mouse monoclonal
B2: aNRP2-404v2 (antibody, V domains shown)
VH: EVQLQQSGPELVKPGASVKISCKASGYTFTDYNMHWVKQSHGKSLEWIGYIYPYNGDSGYNQRFKSEATLTVDISSSTAYMELRSLTSDDSAVYYCARLGRGYWGQGTTLTVSS
VL: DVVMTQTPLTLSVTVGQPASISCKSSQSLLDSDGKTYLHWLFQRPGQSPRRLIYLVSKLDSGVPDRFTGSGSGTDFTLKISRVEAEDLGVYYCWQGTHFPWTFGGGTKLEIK
notes: Mouse monoclonal
B3: aNRP2-400v2 (antibody, V domains shown)
VH: EVQLQESGAELARPGASVKLSCKASGYTFRSYGISWVKQRTGQGLEWIGEIYPRSGNTYYDENFKGRATLTADKSSSTAFMELRSLTSEDSAVYFCARSSITAVVAIPYYYAMDYWGQGTSVTVSS
VL: DIQMTQTTSSLSASLGDRVTISCSASQGISNYLNWYQQKPDGSVKLLIYYTSSLHSGVPSRFSGSGSGTDYSLTISNLEPEDIATYYCQQYSKLPHTFGGGTKLELK
notes: Mouse monoclonal

Legend:
[1] = target: T1, NRP2b peptide (biotinylated) (human, biotin-conjugated, site not stated); assay: BLI, peptide on sensor
T1 construct: also called NRP2b isoform specific peptide
T1 peptide: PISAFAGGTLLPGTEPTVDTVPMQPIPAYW

[2] = target: T2, Short NRP2A peptide (biotinylated) (human, biotin-conjugated, site not stated); assay: BLI, peptide on sensor;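 note: octet RED96e biolayer interferometry with biotin-conjugated NRP2 peptides spanning isoform-specific regions (human and mouse) loaded on biosensors, antibodies applied at 50 nM, association read over 300 s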
[3] = target: T3, NRP2a_scan 4 peptide (biotinylated) (human, also: biotin-conjugated, site not given here); assay: BLI, peptide on sensor;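 note: octet RED96e biolayer interferometry with biotin-conjugated NRP2 peptides spanning isoform-specific regions (human and mouse) loaded on biosensors, antibodies applied at 50 nM, association read over 300 s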
T3 peptide: EGYEDEIDDEYE

[4] = target: mNRP2b peptide (biotinylated) (mouse, biotin-conjugated, site not stated); assay: BLI, peptide on sensor
Sequence of mNRP2b peptide (biotinylated) (mouse, biotin-conjugated, site not stated) (peptide, as listed by the source): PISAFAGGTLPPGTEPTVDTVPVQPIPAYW

[5] = target: T4, NRP2a_scan 1 peptide (biotinylated) (human, also: biotin-conjugated, site not given here); assay: BLI, peptide on sensor;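 note: octet RED96e biolayer interferometry with biotin-conjugated NRP2 peptides spanning isoform-specific regions (human and mouse) loaded on biosensors, antibodies applied at 50 nM, association read over 300 s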
T4 peptide: VDIPEIHEREGY

[6] = target: T5, NRP2a_scan 7 peptide (biotinylated) (human, also: biotin-conjugated, site not given here); assay: BLI, peptide on sensor;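 note: octet RED96e biolayer interferometry with biotin-conjugated NRP2 peptides spanning isoform-specific regions (human and mouse) loaded on biosensors, antibodies applied at 50 nM, association read over 300 s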
T5 peptide: EYEVDWSNSSSA

[7] = target: T6, NRP2a_scan 3 peptide (biotinylated) (human, also: biotin-conjugated, site not given here); assay: BLI, peptide on sensor
T6 peptide: HEREGYEDEIDD

[8] = target: T7, NRP2a_scan 2 peptide (biotinylated) (human, also: biotin-conjugated, site not given here); assay: BLI, peptide on sensor
T7 peptide: PEIHEREGYEDE

[9] = target: T8, NRP2A peptide (biotinylated) (human, biotin-conjugated, site not stated); assay: BLI, isoform peptide on sensor, 50 nM antibody
T8 construct: also called NPR2A; NRP2a specific peptide

[10] = target: T9, mNRP2A peptide (biotinylated) (mouse, biotin-conjugated, site not stated); assay: BLI, peptide on sensor, 50 nM antibody
T9 construct: also called mouse NRP2 isoform a peptide

[11] = target: T10, Mid-mNRP2A peptide (biotinylated) (mouse, biotin-conjugated, site not stated); assay: BLI, peptide on sensor, 50 nM antibody
T10 peptide: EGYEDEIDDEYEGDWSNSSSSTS

[12] = target: T11, Mid-NRP2A peptide (biotinylated) (human, biotin-conjugated, site not stated); assay: BLI, peptide on sensor, 50 nM antibody
T11 peptide: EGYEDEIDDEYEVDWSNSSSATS

[13] = target: T12, NRP2a_scan 5 peptide (biotinylated) (human, also: biotin-conjugated, site not given here); assay: BLI, peptide on sensor, 50 nM antibody
T12 peptide: EDEIDDEYEVDW

[14] = target: T13, NRP2a_scan 6 peptide (biotinylated) (human, also: biotin-conjugated, site not given here); assay: BLI, peptide on sensor, 50 nM antibody
T13 peptide: IDDEYEVDWSNS

[15] = target: T11, Mid-NRP2A peptide (biotinylated); assay: BLI, peptide on sensor
Description: (§1) Biolayer interferometry (BLI) experiments were carried out on an Octet RED96e instrument (Sartorius) to further characterize antibody affinities to the NRP2 peptides screened above. Antibodies were epitope mapped using peptides that span the NRP2a isoform specific region; antibodies were also tested for reactivity to an NRP2b isoform specific peptide and cross-reactivity to mNRP2a and mNRP2b peptides (see Table E2 for peptide sequences).
(§2) Antibodies and peptides were diluted in 1×PBS, 0.1% BSA, 0.02% Tween 20, pH 7.4. […] The biosensors were then dipped into 50 nM solutions of each antibody and read for 300s. The biosensors were regenerated in 10 mM glycine, pH 1.5 in between cycles of different antibodies.

[16] = target: T12, NRP2a_scan 5 peptide (biotinylated); assay: BLI, peptide on sensor
Description: as §1, §2

[17] = target: T13, NRP2a_scan 6 peptide (biotinylated); assay: BLI, peptide on sensor
Description: as §1, §2

[18] = target: T14, Human NRP2a v2 (926aa) in pBiT2.1-C with C-terminal split NanoLuc tag, expressed in Expi293 cells (human, UniProt O60462 23-931); assay: CCL21-induced NRP2a/CCR7 receptor dimerization (NanoBiT, Example 7); mark beside the epitope box
T14 construct: cDNA Origene RCC220706, isoform 2; also called pBiT2.1-C-NRP2v2 (isoform 2); NRP2 v2; not shown: vector-encoded spacer and small split NanoLuc fragment (pBiT2.1-C)

[19] = target: T1, NRP2b peptide (biotinylated); assay: peptide ELISA
NRP2v3 = target: T15, NRP2v3; assay: flow cytometry, Expi293F cells transfected with the target, fluorescent anti-mouse secondary; MFI signal relative to mock-transfected cells
T15 construct: not the NanoLuc-tagged construct m33; also called human NRP2 v3 expressed on Expi293F cells; NRP2a v3
T15 chain: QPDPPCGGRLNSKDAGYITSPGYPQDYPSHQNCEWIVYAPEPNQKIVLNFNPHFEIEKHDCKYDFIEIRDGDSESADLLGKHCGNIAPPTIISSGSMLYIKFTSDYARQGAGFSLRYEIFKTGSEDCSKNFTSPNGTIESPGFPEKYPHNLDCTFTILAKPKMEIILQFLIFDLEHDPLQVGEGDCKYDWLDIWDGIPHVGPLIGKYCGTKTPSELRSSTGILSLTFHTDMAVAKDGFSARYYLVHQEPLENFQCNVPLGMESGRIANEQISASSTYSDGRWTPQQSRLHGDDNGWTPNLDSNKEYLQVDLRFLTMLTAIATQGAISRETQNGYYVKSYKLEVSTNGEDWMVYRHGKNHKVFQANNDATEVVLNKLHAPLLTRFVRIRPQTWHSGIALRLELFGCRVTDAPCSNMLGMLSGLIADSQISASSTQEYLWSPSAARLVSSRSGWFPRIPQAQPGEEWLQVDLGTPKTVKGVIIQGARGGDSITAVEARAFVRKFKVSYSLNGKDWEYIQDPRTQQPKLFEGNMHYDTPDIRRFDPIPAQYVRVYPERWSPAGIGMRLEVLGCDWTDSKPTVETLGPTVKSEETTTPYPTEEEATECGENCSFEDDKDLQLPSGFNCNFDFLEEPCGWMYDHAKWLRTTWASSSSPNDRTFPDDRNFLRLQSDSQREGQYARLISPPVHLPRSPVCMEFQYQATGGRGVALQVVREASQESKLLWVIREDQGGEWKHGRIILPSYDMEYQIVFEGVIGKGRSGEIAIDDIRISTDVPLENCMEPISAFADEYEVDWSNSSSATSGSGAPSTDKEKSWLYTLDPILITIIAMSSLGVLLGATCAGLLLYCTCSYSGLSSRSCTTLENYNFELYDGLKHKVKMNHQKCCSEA
Description: (§3) Signal to noise was calculated as the staining intensity of transfected cells compared to an un-transfected ‘mock’ population.

[20] = target: T16, human NRP2b expressed on Expi293F cells (human); assay: as above
T16 construct: also called full length NRP2b
T16 chain: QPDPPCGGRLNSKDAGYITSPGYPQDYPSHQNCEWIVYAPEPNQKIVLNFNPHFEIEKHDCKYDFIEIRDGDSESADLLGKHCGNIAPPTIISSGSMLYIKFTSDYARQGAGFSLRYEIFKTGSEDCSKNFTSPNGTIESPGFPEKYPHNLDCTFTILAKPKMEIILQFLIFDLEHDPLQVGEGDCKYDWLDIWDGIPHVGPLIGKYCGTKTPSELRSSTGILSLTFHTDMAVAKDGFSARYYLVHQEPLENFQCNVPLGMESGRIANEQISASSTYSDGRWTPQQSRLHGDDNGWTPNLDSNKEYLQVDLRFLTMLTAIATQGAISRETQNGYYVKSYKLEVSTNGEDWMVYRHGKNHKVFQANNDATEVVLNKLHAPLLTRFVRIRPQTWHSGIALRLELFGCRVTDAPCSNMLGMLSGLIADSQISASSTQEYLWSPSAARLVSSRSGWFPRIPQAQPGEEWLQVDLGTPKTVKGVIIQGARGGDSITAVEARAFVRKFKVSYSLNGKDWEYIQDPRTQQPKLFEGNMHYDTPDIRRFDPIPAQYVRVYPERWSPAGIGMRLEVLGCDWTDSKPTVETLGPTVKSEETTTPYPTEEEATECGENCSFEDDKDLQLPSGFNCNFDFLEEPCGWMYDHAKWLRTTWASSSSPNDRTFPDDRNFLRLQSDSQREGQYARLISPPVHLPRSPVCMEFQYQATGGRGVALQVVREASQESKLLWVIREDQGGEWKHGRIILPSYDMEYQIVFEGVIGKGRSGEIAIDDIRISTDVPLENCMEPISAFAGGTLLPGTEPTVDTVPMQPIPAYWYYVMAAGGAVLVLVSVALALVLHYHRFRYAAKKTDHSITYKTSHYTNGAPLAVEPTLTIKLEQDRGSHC
Description: as §3

[21] = target: T2, Short NRP2A peptide (biotinylated); assay: BLI, peptide on sensor, 50 nM antibody
[22] = target: T4, NRP2a_scan 1 peptide (biotinylated); assay: BLI, peptide on sensor, 50 nM antibody
[23] = target: T7, NRP2a_scan 2 peptide (biotinylated); assay: BLI, peptide on sensor, 50 nM antibody
[24] = target: T10, Mid-mNRP2A peptide (biotinylated); assay: BLI, peptide on sensor
Description: as §1, §2

[25] = target: T4, NRP2a_scan 1 peptide (biotinylated); assay: peptide ELISA
[26] = target: T1, NRP2b peptide (biotinylated); assay: BLI, peptide on sensor
[27] = target: T9, mNRP2A peptide (biotinylated); assay: BLI, peptide on sensor

| Binder | binding result [3] | binding result [4] | binding result [6] | binding result [7] | binding result [8] | binding result [9] | binding result [15] | binding result [16] | binding result [17] | blocks receptor dimerization [18] | binding result (NRP2v3) | binding result [20] | binding result [21] | further results |
| --- | --- | --- | --- | --- | --- | --- | --- | --- | --- | --- | --- | --- | --- | --- |
| B1 | no binding (tested: 50 nM) | no binding (tested: 50 nM) | no binding (tested: 50 nM) | no binding (tested: 50 nM) | no binding (tested: 50 nM) | binds |  |  |  |  |  |  |  | binding result [1]: no binding (tested: 50 nM); binding result [2]: no binding (tested: 50 nM); binding result [5]: no binding (tested: 50 nM); binding result [10]: binds; binding result [11]: binds; binding result [12]: binds; binding result [13]: binds; binding result [14]: binds |
| B2 | no binding (tested: 50 nM) | no binding (tested: 50 nM) | no binding (tested: 50 nM) | no binding (tested: 50 nM) |  | binds | no binding (tested: 50 nM) | no binding (tested: 50 nM) | no binding (tested: 50 nM) | < 50% | no binding | no binding | binds | binding result [19]: no binding (tested: <3x blank); binding result [22]: binds; binding result [23]: binds |
| B3 | no binding (tested: 50 nM) | no binding (tested: 50 nM) | no binding (tested: 50 nM) | no binding (tested: 50 nM) | no binding (tested: 50 nM) | binds | no binding (tested: 50 nM) | no binding (tested: 50 nM) | no binding (tested: 50 nM) | > 50% | no binding | no binding | binds | binding result [24]: no binding (tested: 50 nM); binding result [25]: binds; binding result [26]: no binding (tested: 50 nM); binding result [27]: no binding (tested: 50 nM) |
